Assay [1] has as its target T1, C-terminal PP2Ac peptide Y307F, CGEPHVTRRTPDFFL (15-mer).
T1 construct: Non-carboxymethylated; Phe in place of Tyr307; Crosslinked to BSA in the Western blot; free or linked to BSA in the ELISA
T1 peptide: CGEPHVTRRTPDFFL
The assay can be described thus: Western blot of 100 ng BSA crosslinked with peptide. As to the method: 100 ng of BSA crosslinked with peptides (L309: […] (SEQ ID NO:49), Y307F: […] (SEQ ID NO.50), pY307: […]pYFL (SEQ ID NO:51) or meL309: […]-CH₃) (SEQ ID NO:49) was separated by 10% SDS-PAGE and transferred to nitrocellulose membrane (0.2 μm, GE Healthcare). […] The membranes were blocked in 3% non-fatty dry milk (NFDM) in TBS-Tween for 1 h at RT and incubated with single clone hybridoma cell culture supernatant, clone 7C10-C5 diluted 1:100 in 0.5% NFDM in TBS-T (7C10 X63), recombinant single chain variable fragment of antibody 7C10-C5, undiluted (7C10 scFvs), recombinant bivalent single chain variable fragment 7C10-C5, undiluted (7C10 bi-scFvs) or single clone hybridoma cell culture supernatant, clone 1D7 (binding to non-carboxymethylated PP2Ac) 1:100 in 0.5% NFDM in TBS-T o/n at 4° C. After washing 3×5 min in TBS-T, blots incubated with recombinant antibodies were incubated with mouse anti-HA monoclonal antibody 16B12 (recognizing the hemagglutinin (HA) tag on the recombinant antibody), 1:10000 in 0.5% NFDM in TBS-T 2 h at room temperature. After washing 3×5 min in TBS-T, incubation with anti-mouse-HRP coupled secondary antibody for 1 h at RT and 3×10 min washes in TBS-T was performed. ECL was performed with GE Healthcare ECL reagents (RPN2106) mixed 1:3 with Clarity™ Western ECL Substrate, 500 ml #1705061 (Biorad). Signals were detected by exposure of X-ray films. […]
Background: Immunoblotting shows a protein as a band on a membrane.

Assay [2] addresses PP2Ac C-terminal peptides (L309, meL309, amL309, pT304, pY307) (Homo sapiens, UniProt P67775). As to the kind of experiment: ELISA with PP2Ac C-terminal undecapeptides. The format is binding. As to the method: 7C10-C5 was tested for its specificity to the unmodified, methylated or amidated carboxyl group of Leu^309 at the carboxy-terminus of PP2Ac by ELISA with 3 different undecapeptides (11-mers) (FIG. 4). Methylated and amidated peptides were compared because at physiological pH the α-carboxyl-group of Leu^309 is negatively charged and either the methylation or amidation of the α-carboxyl-group neutralizes its negative charge. This allowed the inventors to discriminate between a specificity for the amidated charge-neutralized PP2Ac C-terminus or the carboxymethylated charge-neutralized PP2Ac C-terminus.
Specifically, flat-bottom Nunc-Immuno Medisorp 96-well ELISA plates (Thermo; 467320) were coated o/n at 4° C. with 50 μl of either a peptide of the sequence ac-HVTRRTPDYFL-OH (L309; unmodified) (SEQ ID NO:18) at a concentration of 2 μg/ml, a peptide of the sequence ac-HVTRRTPDYFL-CH3 (meL309; methylated) (SEQ ID NO:18) at a concentration of 2 μg/ml in TBS (137 mM NaCl (AppliChem, #131659, 2.7 mM KCl (AppliChem, #131494), 24.8 mM Tris (AppliChem, #A1086), pH 7.4 with HCl) or a peptide of the sequence ac-HVTRRTPDYFL-NH2 (amL309; amidated) (SEQ ID NO:18) at a concentration of 2 μg/ml in TBS. Of note, the “ac-” in the peptides described here and in other Examples refers to an acetylated N-terminus. Said acetylation neutralizes the positive charge at the N-terminus, and the free charged N-terminus is thereby removed.
Then, the wells were washed once with TBS, blocked with 200 μl of 2% bovine serum albumin (BSA) (Sigma, A9647) in TBS for 1 hour at RT and washed again once with TBS. […] Bound antibodies were detected colorimetrically by addition of 50 μl of 33 μg/ml […] (TMB) (Sigma, T2885) in 0.1 M sodium acetate pH 6.0 and 0.01% H2O2 (Sigma, H1009). The colorimetric reaction was stopped after 10 min by addition of 50 μl 0.5 M H2SO4, and measured at 450 nm and 560 nm with a Perkin Elmer VICTOR® Nivo™ microplate reader. The results from 560 nm read were subtracted from the 450 nm read. […]
For orientation: ELISA stands for enzyme-linked immunosorbent assay.

B1: 7C10-C5 monoclonal antibody (antibody, V domains shown)
VH: DVQLQESGPGLVKPSQSLSLTCSVTGYSITSGYYWNWIRQFPGNKLEWMGYISYDGSNNYNPSLKNRISITRDTSKNQFFLKLNSVTTEDTATYYCAGRFAYWGQGTLVTVSA
VL: DVLMTQTPLSLPVSLGDQASISCRSSQSIVHSNGNTYLEWYLQKPGQSPKLLIYKVSNRFSGVPDRFSGSGSGTDFTLKINRVEAEDLGVYYCFQGSHVPWTFGGGTKLEIK
notes: Used as hybridoma culture supernatant (ELISA, Western blot, IHC) or at 50 µg/mL (SPR); also called 7C10 X63; clone 7C10-C5
Turning to B1, in assay [1], the binding result was “no binding (tested: supernatant 1:100)”.

B2: 7C10-C5: α-carboxymethylation specific mouse monoclonal IgG1 antibody from single clone hybridoma 7C10-C5 (DSM ACC3350) (antibody)
heavy: MYRMQLLSCIALSLALVTNSDVQLQESGPGLVKPSQSLSLTCSVTGYSITSGYYWNWIRQFPGNKLEWMGYISYDGSNNYNPSLKNRISITRDTSKNQFFLKLNSVTTEDTATYYCAGRFAYWGQGTLVTVSAAKTTAPSVYPLAPVCGDTTGSSVTLGCLVKGYFPEPVTLTWNSGSLSSGVHTFPAVLQSDLYTLSSSVTVTSSTWPSQSITCNVAHPASSTKVDKKIEPRGPTIKPCPPCKCPAPNLLGGPSVFIFPPKIKDVLMISLSPIVTCVVVDVSEDDPDVQISWFVNNVEVHTAQTQTHREDYNSTLRVVSALPIQHQDWMSGKEFKCKVNNKDLPAPIERTISKPKGSVRAPQVYVLPPPEEEMTKKQVTLTCMVTDFMPEDIYVEWTNNGKTELNYKNTEPVLDSDGSYFMYSKLRVEKKNWVERNSYSCSVVHEGLHNHHTTKSFSRTPGK
light: MDMRVPAQLLGLLLLWLSGARCDVLMTQTPLSLPVSLGDQASISCRSSQSIVHSNGNTYLEWYLQKPGQSPKLLIYKVSNRFSGVPDRFSGSGSGTDFTLKINRVEAEDLGVYYCFQGSHVPWTFGGGTKLEIKADAAPTVSIFPPSSEQLTSGGASVVCFLNNFYPKDINVKWKIDGSERQNGVLNSWTDQDSKDSTYSMSSTLTLTKDEYERHNSYTCEATHKTSTSPIVKSFNRNEC
modifications: Amino acid sequence of the recombinant 7C10-C5 heavy chain; Amino acid sequence of the recombinant 7C10-C5 light chain
Regarding B2, in assay [2], the “effect of concurrent Tyr307 phosphorylation on binding to carboxymethylated PP2Ac C-terminus” value is recorded as “not significantly altered”. In addition, the “detection difference carboxymethylated+Thr304 phosphorylated versus carboxymethylated peptide” value in assay [2] (at lower peptide concentrations (dilution series 8 μg/ml to 7.8125 ng/ml)) came to 4 fold. Besides, the “signal intensity α-carboxymethylated PP2Ac peptide when Thr304 is phosphorylated versus not phosphorylated” value in assay [2] (peptides at 2 μg/ml) worked out at 1.6 fold.

The values above are taken from US20230121197A1, “ANTIBODIES SPECIFICALLY BINDING THE CARBOXYMETHYLATED CATALYTIC SUBUNIT OF PROTEIN PHOSPHATASE 2A” (Medizinische Universität Wien, priority 2020, published 2023).
